Measurements as given in publication PMC9722636.

Molecular target: recombinant HAstV MLB1 capsid spike domain (residues 399-653 of the HAstV MLB1 capsid protein) (Human astrovirus MLB1)
Assay: SEC

How did the stoichiometry N turn out when “recombinant HAstV MLB1 capsid spike domain (residues 399-653 of the HAstV MLB1 capsid protein) (domain or fragment)” was run?
The stoichiometry N was 2.
